Among the data in patent US20220073643A1 are EC50 values, retold here.

Positions count from the first letter of the chain named.

B1: 200A4H8 (antibody, V domains shown)
VH: QVQLKQSGPGLVQPSQSLSITCTVSGFSLTRYGVHWVRQSPGKGLEWLGVIWSGGNTDYNAAFISRLNIRKDNSKSQVFFKMNSLKPNDTAIYYCARAAYFGNSFDYWGQGTTLTVSS
VL: DIVMTQSPSSLPVTAGEKVTMSCKSSQSLLNSGNQKNYLTWYQQKPGQPPKLLIYWASTRDSGVPDRFTGSGSGTDFTLTISSVQAEDLAVYYCQNNYIYPLTFGAGTKLELK
B2: 416F12F3 (antibody, V domains shown)
VH: DVQLVESGGGLVQPGGSRKLSCAASGFTFSSFGMHWVRQAPEKGLEWVAYISSGSSTIYYAHSVKGRFTISRDNPKNTLFLQMTSLGSEDTAMYYCARFYYGNSFAYWGQGTLVTVSA
VL: B1 VL with P12T, M21L, L52M, D61E, N97A, I99T, K109R
B3: 410A9A9 (antibody, V domains shown)
VH: B2 VH with T57P, H62D, S63T, G87R, Y95F, R98T
VL: B1 VL with P12T, S28T, P46S, D61E, N97A, I99S, L102V, A106S, L110V
B4: 422E8F9 (antibody, V domains shown)
VH: DVQLVESGGGLVQPGGSRKLSCAASGFTFSGFGMHWIRQTPEKGLEWVAYISSGSRPIYYADTVQGRFTISRDNPKNTLFLQMTSLRSEDTAMYFCARFYYGNSFDHWGQGTLVTVSS
VL: B1 VL with S10F, P12T, D61E, V91L, N97A, I99S, Y100F
B5: 418B8B10 (antibody, V domains shown)
VH: B4 VH with G31S, I37V, T40A, R56S, A61T, Q65K, S118A
VL: B1 VL with P12T, T20S, L30F, S32R, N37S, K45R, D61E
B6: 413B1C9 (antibody, V domains shown)
VH: B4 VH with G31S, I37V, T40A, R56S, Q65K, S118A
VL: B1 VL with P12T, A15T, T20S, L30F, S32R, N37S, D61E
B7: 422F4B6 (antibody, V domains shown)
VH: B2 VH with T28S, T57P, H62D, S63T, T69I, G87R, Y95F, F99I
VL: B1 VL with P12T, S28T, D61E, N97A, I99S, A106S
B8: 414A5F7 (antibody, V domains shown)
VH: B2 VH with T57P, H62D, S63T, G87R, Y95F, F99I
VL: B1 VL with P12T, T20A, S28T, I54L, D61E, N97A, I99Y, A106S
B9: 420G10G3 (antibody, V domains shown)
VH: B4 VH with P41A, S118A
VL: B1 VL with S10F, P12T, D61E, V91L, N97A, I99S, Y100F
B10: 420H3H9 (antibody, V domains shown)
VH: B2 VH
VL: B1 VL with P12T, M21L, L52M, D61E, V91D, N97A, I99T, K109R
B11: 421H4G3 (antibody, V domains shown)
VH: B4 VH with T28S, M34L, Q65K, Y101F, S118T
VL: B1 VL with S10F, P12T, K24R, K36R, D61E, S82N, V91L, N97A, I99S, Y100F
B12: 203A6D5 (antibody, V domains shown)
VH: B1 VH
VL: B1 VL
B13: 414H6G2 (antibody, V domains shown)
VH: B4 VH with P41A, S118A
VL: B1 VL with S10F, P12T, D61E, V91L, N97A, I99S, Y100F
B14: 420D5H5 (antibody, V domains shown)
VH: B4 VH with F29L, A61V, Q65E
VL: B1 VL with S10F, P12T, D61E, S82R, S83G, V91L, N97A, I99S, Y100F
B15: 412B6E4 (antibody, V domains shown)
VH: B2 VH with M34V, M93T
VL: B1 VL with P12T, L52M, D61E, N97A, I99T, K109R
B16: 419A10D4 (antibody, V domains shown)
VH: B4 VH with Q65K, S118A
VL: B1 VL with S10F, P12T, K36R, D61E, I81V, V91L, N97A, I99S, Y100F
B17: 203A6C9 (antibody, V domains shown)
VH: B1 VH
VL: B1 VL
B18: 413C12F8 (antibody, V domains shown)
VH: B4 VH with M34V, S52G, Q65K, S118A
VL: B1 VL with S10F, P12T, S22N, K24R, K45R, D61E, V91L, N97A, I99S, Y100F
B19: 411G3E10 (antibody, V domains shown)
VH: B4 VH with Q65K, S118A
VL: B1 VL with S10F, P12T, S22N, K24R, D61E, V91L, N97A, I99S, Y100F
B20: 410H6H3 (antibody, V domains shown)
VH: B2 VH with Q3L, F32S, S56N, H62D, S63T, V64L, G87R, F99I, A106V
VL: B1 VL with P12T, T20I, L52M, D61E, T69R, I99Y, A106T, E111A
B21: 411B4G4 (antibody, V domains shown)
VH: B4 VH with M34L, Q65K, S118A
VL: B1 VL with S10F, P12T, K24R, K36R, D61E, V91L, N97A, I99S, Y100F
B22: 409D1A7 (antibody, V domains shown)
VH: B4 VH with Q65K, Q82H, S118A
VL: B1 VL with S10F, P12T, S22N, K36R, D61E, V91L, N97A, I99S, Y100F, K113N
B23: 417A6F11 (antibody, V domains shown)
VH: EVQLQQSGPELVKPGASMKISCKASGYSFTGYTMNWVKQSHGKNLEWIGLINPYNGGTSYNQKFKGKATLTVDKSSSTAYMELLSLTSEDSAVYYCARGDYWGQGTTLTVSS
VL: DIVMTQSPSSLTVTAGEKVTMSCKSSQSLLNSGNQKNYLTWYQQKPGQPPKLLIYWASTRESGVPDRFTGSGSGTDFTLTISSVQAEDLAVYYCQNDYSYPTFGAGTKLELK
B24: 420H7E6 (antibody, V domains shown)
VH: DVQLVESGGGLVQPGGSRKLSCVTSGFTFSSFGMHWIRQAPEKGLEWVAFISGGGSPIFYADSVKGRFTVSRDNPKNTLFLQMTGLRSEDTAMYFCARFYFGNSFAYWGQGTLVTVSA
VL: DIVMAQSPSSLTVTAGEKVTMNCRSSQSLFNSGNQKNYLTWYQQKPGQPPKLLIYWASTRESGVPVRFTGSGSGTDFTLTISSVQAEDLAVYYCQTGFSYPLTFGPGTKLELK
B25: 201F4H6 (antibody, V domains shown)
VH: QVQLKESGPGLVAPSQSLSITCTVSGFSLTSYGVSWVRQPPGKGLECLGVIWAGGNTNYNSALMSRLSISKDKSKSQVFLKMNSLQTDDTAMYYCARVYYGNAMDYWGQGTSVTVSS
VL: DIVMTQSPSSLTVTAGEKVTMSCKSSQSLLNSGNQKSYLTWYQQRPGQPPKLLIYWASTRESGVPDRFTGSGSGTDFTLTISSVQAEDLAVYFCQNVYFFPFTFGSGTKLETK
B26: 409G10G6 (antibody, V domains shown)
VH: B4 VH with G54D, Q65K, A97G, S118A
VL: DIVMTQSPSFLTVTAGEKVTLSCRSSQSLLNSGNQRNYLTWYQQKPGQPPKLLIYWASTRESGVPDRFTGSGSGTDFTLTISSVQAEDRALYYCQNAYSFPLTFGTGTKLELR
B27: 420F12G8 (antibody, V domains shown)
VH: B4 VH with T28A, Q65K, A97V, S118A
VL: B26 VL with L21M, S22T, S28N, R36K, Y55S, A86P, R89L, L102F, T106A, R113K
B28: 411A6E3 (antibody, V domains shown)
VH: B4 VH with G31D, Q65K, A97V, Y101F, S118A
VL: B26 VL with L21M, S22T, S28N, Q35L, R36K, Y55S, A86P, R89L, T106A, R113K
B29: 419A5F3 (antibody, V domains shown)
VH: B4 VH with G54D, Q65K, A97G, S118A
VL: B26 VL

The target of the experiment is Claudin18.2-His protein (human). In words: indirect ELISA on coated Claudin18.2-His. A general note: ELISA stands for enzyme-linked immunosorbent assay.
For orientation: EC50 means the concentration that produces a half-maximal response. Read a low EC50 as a more potent agent. B1 showed an EC50 of 10.5 ng/mL.
The value for B2 was 11.5 ng/mL.
The value for B3 was 20.8 ng/mL; that for B4 was 8.73 ng/mL.
As to B5, the EC50 stood at 8.87 ng/mL.
The value for B6 was 3.46 ng/mL.
With B7 the figure was 149 ng/mL; with B8, 8.05 ng/mL; with B9, 11.3 ng/mL.
The value for B10 was 7.22 ng/mL.
As to B11, the EC50 came to 7.53 ng/mL.
With B12 the figure was 27.1 ng/mL.
Regarding B13, the EC50 worked out at 11.6 ng/mL.
In turn, B14 gave an EC50 of 23.9 ng/mL.
With B15 the figure was 6.31 ng/mL.
On to B16, for which the EC50 was 6.53 ng/mL.
With B17, the EC50 turned out to be 65.4 ng/mL.
In turn, B18 displayed an EC50 of 6.82 ng/mL.
In turn, B19 had an EC50 of 5.43 ng/mL.
As to B20, the 50% effective concentration (EC50) came out at 2.93 ng/mL.
With B21 the figure was 9.45 ng/mL; with B22, 7.75 ng/mL; with B23, 42.8 ng/mL.
Take B24: the EC50 was found to be 54.5 ng/mL.
The value for B25 was 119 ng/mL.
With B26 the figure was 9.52 ng/mL; with B27, 17.6 ng/mL.
In turn, B28 came in with a concentration giving a half-maximal response (EC50) of 6.74 ng/mL.
The value for B29 was 5.51 ng/mL.
